Holding throughout (assay): cell-based or functional assay
Experiment [1] has as its target T1, factor VIIIa A1/A3C1C2 dimer, Glu1984Val (human, UniProt P00451 20-391; P00451 1709-2351).
T1 sequence 1: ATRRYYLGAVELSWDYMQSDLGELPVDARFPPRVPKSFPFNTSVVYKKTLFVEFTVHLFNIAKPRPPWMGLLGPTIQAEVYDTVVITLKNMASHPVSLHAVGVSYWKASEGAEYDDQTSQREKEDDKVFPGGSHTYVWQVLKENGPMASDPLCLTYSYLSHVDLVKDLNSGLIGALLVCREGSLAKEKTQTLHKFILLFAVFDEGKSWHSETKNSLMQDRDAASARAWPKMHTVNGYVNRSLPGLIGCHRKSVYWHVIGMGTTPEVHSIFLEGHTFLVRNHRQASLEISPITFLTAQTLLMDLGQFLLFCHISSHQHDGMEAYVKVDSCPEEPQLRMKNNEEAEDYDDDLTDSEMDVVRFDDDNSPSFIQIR
T1 sequence 2: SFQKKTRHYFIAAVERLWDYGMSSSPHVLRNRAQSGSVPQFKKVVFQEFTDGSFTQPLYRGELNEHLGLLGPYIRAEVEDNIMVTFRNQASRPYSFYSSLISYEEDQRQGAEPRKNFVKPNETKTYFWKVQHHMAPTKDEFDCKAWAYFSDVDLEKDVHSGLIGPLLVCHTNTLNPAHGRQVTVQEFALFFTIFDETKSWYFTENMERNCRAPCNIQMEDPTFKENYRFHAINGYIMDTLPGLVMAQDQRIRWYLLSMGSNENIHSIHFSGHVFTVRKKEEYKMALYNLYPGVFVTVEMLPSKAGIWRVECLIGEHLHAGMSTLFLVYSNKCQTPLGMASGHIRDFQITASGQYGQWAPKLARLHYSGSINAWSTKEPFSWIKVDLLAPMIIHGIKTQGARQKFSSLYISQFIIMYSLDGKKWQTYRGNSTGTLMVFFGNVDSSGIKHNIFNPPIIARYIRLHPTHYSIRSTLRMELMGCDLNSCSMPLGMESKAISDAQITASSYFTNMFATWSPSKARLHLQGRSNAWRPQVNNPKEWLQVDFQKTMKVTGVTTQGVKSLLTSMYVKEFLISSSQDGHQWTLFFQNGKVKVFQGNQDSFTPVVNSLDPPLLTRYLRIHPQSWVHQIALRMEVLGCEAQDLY

In experiment [2] the target is T2, factor VIIIa A1/A3C1C2 dimer, R282A (human, UniProt P00451 20-391; P00451 1709-2351).
T2 chain 1: T1 sequence 1 with R282A
T2 chain 2: T1 sequence 2 with V295E

Experiment [3] addresses T3, factor VIIIa A1/A3C1C2 dimer, D27A (human, UniProt P00451 20-391; P00451 1709-2351).
T3 chain 1: T1 sequence 1 with D27A
T3 chain 2: T1 sequence 2 with V295E

Numbering of substitutions follows the chain as printed.

B1: factor VIIIa A2 subunit, wild type (other)
chain: SVAKKHPKTWVHYIAAEEEDWDYAPLVLAPDDRSYKSQYLNNGPQRIGRKYKKVRFMAYTDETFKTREAIQHESGILGPLLYGEVGDTLLIIFKNQASRPYNIYPHGITDVRPLYSRRLPKGVKHLKDFPILPGEIFKYKWTVTVEDGPTKSDPRCLTRYYSSFVNMERDLASGLIGPLLICYKESVDQRGNQIMSDKRNVILFSVFDENRSWYLTENIQRFLPNPAGVQLEDPEFQASNIMHSINGYVFDSLQLSVCLHEVAYWYILSIGAQTDFLSVFFSGYTFKHKMVYEDTLTLFPFSGETVFMSMENPGLWILGCHNSDFRNRGMTALLKVSSCDKNTGDYYEDSYEDISAYLLSKNNAIEPR
With B1, in experiment [1], the “Factor VIIIa Decay relative to the WT value, Factor IXa absent” value is 0.26 relative to WT; the “Factor VIIIa Decay relative to the WT value, Factor IXa present” value is 0.13 relative to WT; the “Factor VIIIa Decay, Factor IXa absent” value is 0.0217 min⁻¹; the “Factor VIIIa Decay, Factor IXa present” value came to 0.0019 min⁻¹. Also, in experiment [2], the “Factor VIIIa decay rate relative to wild type, FIXa (+)” value is 41.7 relative to wild type; the “Factor VIIIa decay rate relative to wild type, FIXa (-)” value was 10.7 relative to wild type; the “Factor VIIIa decay rate, FIXa (+)” value came to 0.471 min⁻¹; the “Factor VIIIa decay rate, FIXa (-)” value worked out at 0.674 min⁻¹. In experiment [3], the “Factor VIIIa decay rate relative to wild type, FIXa (+)” value is 0.79 relative to wild type and the “Factor VIIIa decay rate, FIXa (+)” value was found to be 0.0089 min⁻¹.

Source of the values: US20090118184A1 (UNIVERSITY OF ROCHESTER, published 2009).
